Read-outs that look alike come from different tables or passages of the source.
Experiments:
Human TNFR2 mFc = target: T1, Human TNFR2 mFc (human, UniProt P20333 23-257); test: bridging ELISA: Human TNFR2 mFc coated (0.3 ug/mL), antibody titrated, then Human 4-1BB His (0.3 ug/mL), HRP anti-His detection (Example 5)
T1 construct: Bought protein; not shown: mFc
T1 sequence (looked up): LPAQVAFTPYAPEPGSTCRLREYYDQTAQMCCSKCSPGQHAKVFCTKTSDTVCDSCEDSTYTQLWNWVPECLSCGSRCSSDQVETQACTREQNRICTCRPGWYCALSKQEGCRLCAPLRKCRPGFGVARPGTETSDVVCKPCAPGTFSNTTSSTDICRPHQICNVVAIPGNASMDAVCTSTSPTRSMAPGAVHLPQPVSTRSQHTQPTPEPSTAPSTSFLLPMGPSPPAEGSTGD
Procedure: (§1) Human TNFR2 mFc (manufacturer: Kaixia, CAT: TN-HM3R2, LOT: 031202) was diluted to 0.3 μg/mL with a coating solution (1×PBS, pH7.4) and coated into a 96-well ELISA plate at 100 μL/well at 4° C. overnight. The coating solution was poured off. Each well was washed with 1×PBST at 300 μL, washed 4 times with a plate washer, and patted dry on a flat paper. It was blocked with 3% skim milk powder at 300 μL/well, and incubated at 37° C. for 1 h. The blocking solution was poured off, washed 4 times with a plate washer, and patted dry on a flat paper. […] Starting at 50 nM, which was used as the initial concentration for 3-fold dilution, a total of 10 gradients were diluted, and a blank well was set up and only the diluent was added. It was incubated at 37° C. for 1 h at 100 µL/well. The liquid in the well was discarded, washed 4 times with a plate washer, and patted dry on a flat paper. Human 4-1BB His (manufacturer: Acro, CAT: 41B-H5258, LOT: 198-2146F1-W6) was diluted to 0.3 μg/mL, 100 μL was added to each well, and incubated at room temperature for 1 h. The plate was washed 3 times with PBST, and then the HRP-labeled his antibody was diluted with sample diluent at 1:5000, 100 μ L was added to each well, and incubated at room temperature for 1 h. It was washed 6 times with a plate washer, and patted dry on a flat paper. TMB color developing solution was added at 100 μL/well, and wrapped with aluminum foil. Color development was performed at 37° C. in the dark for 8 min. Termination solution 1M HCl was added to terminate the color development reaction at 100 μL/well. Readings were taken at 450 nm on an ELISA reader.

Human 4-1BB His [1] = target: T2, Human 4-1BB His (human, UniProt Q07011 24-186); test: as above
T2 construct: Bought protein; lots 198-2146F1-W6 and 2407c-214FF1-YC; also called human 4-1BB protein; 4-1BB protein; not shown: His tag
T2 sequence (Q07011 24-186 limits assumed): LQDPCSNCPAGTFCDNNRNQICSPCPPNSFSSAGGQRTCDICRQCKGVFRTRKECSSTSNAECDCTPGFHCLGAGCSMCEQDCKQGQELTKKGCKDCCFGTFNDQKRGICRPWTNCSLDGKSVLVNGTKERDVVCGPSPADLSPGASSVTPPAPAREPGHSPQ
Procedure: as §1

Human-TNFR2-His [2] = target: T3, Human-TNFR2-His (human, UniProt P20333 23-257); test: ELISA: Human-TNFR2-His coated (0.1 ug/mL), antibody titrated, goat anti-human IgG Fc detection (Example 2)
T3 construct: Bought protein; also called human TNFR2 protein; TNFR2 protein; not shown: His tag
T3 sequence (looked up): T1 sequence (looked up)
Procedure: (§2) Human-TNFR2-His (manufacturer: SINO, CAT: 10417-H08H, LOT: LC15NO0412) was diluted to 0.1 μg/mL with a coating solution (1×PBS, pH7.4), and coated in 96-well ELISA plate at 100 µL/well overnight at 4° C. The coating solution was poured off. Each well was washed with 1×PBST at 300 μL, washed 4 times with a plate washer, and patted dry on a flat paper. It was blocked with 3% skim milk powder at 300 μL/well, and incubated at 37° C. for 1 h. The blocking solution was poured off, washed 4 times with a plate washer, and patted dry on a flat paper. Negative control and positive control were set up. […] The positive control and antibody were diluted to 10 μg/mL with 3% skim milk powder as the starting concentration, and then diluted by 3-fold gradient (11 gradients in total), and a blank well was set up and only the diluent was added. It was incubated at 37° C. for 1 h at 100 μL/well. The liquid in the well was discarded, washed 4 times with a plate washer, and patted dry on a flat paper. Goat anti-human IgG Fc was diluted with 3% skim milk powder at 1:10000, and incubated at 37° C. for 1 h at 100 μL/well. It was washed 6 times with a plate washer, and patted dry on a flat paper. TMB color developing solution was added at 100 μL/well, and wrapped with aluminum foil. Color development was performed at 37° C. in the dark for 8 min. Termination solution 1M HCl was added to terminate the color development reaction at 100 μL/well. Readings were taken at 450 nm on an ELISA reader.

Human 4-1BB Fc = target: T4, Human 4-1BB Fc (human, UniProt Q07011 24-186); test: bridging ELISA: Human 4-1BB Fc coated (0.3 ug/mL), antibody titrated, then Human-TNFR2-His (0.3 ug/mL), HRP anti-His detection (Example 4)
T4 construct: same catalogue and lot number as Human 4-1BB His; not shown: Fc
T4 sequence (Q07011 24-186 limits assumed): as above
Procedure: Human 4-1BB Fc (manufacturer: Acro, CAT: 41B-H5258, LOT: 198-2146F1-W6) was diluted to 0.3 μg/mL with a coating solution (1×PBS, pH7.4) and coated into a 96-well ELISA plate at 100 µL/well at 4° C. overnight. The coating solution was poured off. Each well was washed with 1×PBST at 300 μL, washed 4 times with a plate washer, and patted dry on a flat sheet. It was blocked with 3% skim milk powder at 300 μL/well, and incubated at 37° C. for 1 h. The blocking solution was poured off, washed 4 times with a plate washer, and patted dry on a flat sheet. […] Starting at 50 nM, which was used as the initial concentration for 3-fold dilution, a total of 10 gradients were diluted, and a blank well was set up and only the diluent was added. It was incubated at 37° C. for 1 h at 100 μL/well. The liquid in the well was discarded, washed 4 times with a plate washer, and patted dry on a flat paper. Human-TNFR2-His (manufacturer: Sino, CAT: 10417-H08H, LOT: LC15NO0412) was diluted to 0.3 μg/mL, 100 μL was added to each well, and incubated at room temperature for 1 h. The plate was washed 3 times with PBST, and then the HRP-labeled his antibody was diluted with sample diluent at 1:5000, 100 μ L was added to each well, and incubated at room temperature for 1 h. It was washed 6 times with a plate washer, and patted dry on a flat paper. TMB color developing solution was added at 100 μL/well, and wrapped with aluminum foil. Color development was performed at 37° C. in the dark for 8 min. Termination solution 1M HCl was added to terminate the color development reaction at 100 μL/well. Readings were taken at 450 nm on an ELISA reader.

Human 4-1BB His [3] = target: T2, Human 4-1BB His; test: ELISA: Human 4-1BB His coated (0.2 ug/mL), antibody titrated, goat anti-human IgG Fc detection (Example 3)
Procedure: Human 4-1BB His (manufacturer: Acro, CAT: 41B-H5258, LOT: 198-2146F1-W6) was diluted to 0.2 μg/mL with a coating solution (1×PBS, pH7.4), and coated in 96-well ELISA plate at 100 μL/well overnight at 4° C. The coating solution was poured off. Each well was washed with 1×PBST at 300 μL, washed 4 times with a plate washer, and patted dry on a flat paper. It was blocked with 3% skim milk powder at 300 μL/well, and incubated at 37° C. for 1 h. The blocking solution was poured off, washed 4 times with a plate washer, and patted dry on a flat paper. Negative control and positive control were set up. […] The variable region of the antibody sequence of the positive control consists of SEQ ID NO: 15 and SEQ ID NO: 19, with the addition of the constant region of human IgG1 (SEQ ID NO: 46 and SEQ ID NO: 47). The positive control and antibody were diluted to 10 μg/mL with 3% skim milk powder as the starting concentration, and then diluted by 3-fold gradient (11 gradients in total), and a blank well was set up and only the diluent was added. It was incubated at 37° C. for 1 h at 100 μL/well. The liquid in the well was discarded, washed 4 times with a plate washer, and patted dry on a flat paper. Goat anti-human IgG Fc was diluted with 3% skim milk powder at 1:20000, and incubated at 37° C. for 1 h at 100 μL/well. It was washed 6 times with a plate washer, and patted dry on a flat paper. TMB color developing solution was added at 100 μL/well, and wrapped with aluminum foil. Color development was performed at 37° C. in the dark for 8 min. Termination solution 1M HCl was added to terminate the color development reaction at 100 μL/well. Readings were taken at 450 nm on an ELISA reader.

Human-TNFR2-His [4] = target: T3, Human-TNFR2-His; test: ELISA: Human-TNFR2-His coated (0.1 ug/mL), antibody titrated, goat anti-human IgG Fc detection (Example 2); remark: listed apart in the source
Procedure: as §2

B1: Antibody D (bispecific antibody, human IgG1, kappa)
light: EVQLVQSGAEVKKPGATVKISCKVSGYSITDYLLHWVQQAPGKCLEWMGWIDPEDAKTKYGQKFQSRVTITADTSTDTAYMELSSLRSEDTAVYYCAANSGTGTMDAWGQGTLVTVSSGGGGSGGGGSGGGGSDIVMTQSPATLSVSPGERATLSCKASQNVGSNVDWYQQKPGQSPRVLIYKASIRYTGIPARFSGSGSGTEFTLTISILQSEDFAVYFCMQSKSYPITFGCGTKLEIKGGGGSGGGGSGGGGSDIQMTQSPSSLSASLGDRVTISCSASQGISNYLNWYQQKPDGTVKLLIYYTSTLHSGVPSRFSGSGSGTDYTLTISSLQPEDIATYYCQQYSKLPWTFGGGTKLEIKRTVAAPSVFIFPPSDEQLKSGTASVVCLLNNFYPREAKVQWKVDNALQSGNSQESVTEQDSKDSTYSLSSTLTLSKADYEKHKVYACEVTHQGLSSPVTKSFNRGEC
heavy: not shown
notes: IgG1 subtype; full-length 4-1BB antibody with TNFR2 scFv at the N-terminus of the light chains
- binding result (Human TNFR2 mFc): binds
- binding result (Human 4-1BB His [1]): binds
- binding result (Human-TNFR2-His [2]): binds

B2: Antibody F (bispecific antibody, human IgG1, kappa)
light: DIVMTQSPATLSVSPGERATLSCKASQNVGSNVDWYQQKPGQSPRVLIYKASIRYTGIPARFSGSGSGTEFTLTISILQSEDFAVYFCMQSKSYPITFGQGTKLEIKRTVAAPSVFIFPPSDEQLKSGTASVVCLLNNFYPREAKVQWKVDNALQSGNSQESVTEQDSKDSTYSLSSTLTLSKADYEKHKVYACEVTHQGLSSPVTKSFNRGECGGGGSGGGGSQVQLQESGPGLVKPSETLSLTCTVSGSSLTSYGVHWVRQPPGKCLEGLGVIWPGGSTNYNSALMSRVTISKDNSKSQVSLKMSSLTAADTAVYYCARVTGTWYFDVWGQGTTVTVSSGGGGSGGGGSGGGGSDIQMTQSPSSLSASLGDRVTISCSASQGISNYLNWYQQKPDGTVKLLIYYTSTLHSGVPSRFSGSGSGTDYTLTISSLQPEDIATYYCQQYSKLPWTFGCGTKLEIK
heavy: not shown
notes: IgG1 subtype; full-length TNFR2 antibody with 4-1BB scFv at the C-terminus of the light chains
- EC50 (read off the curve) (Human TNFR2 mFc): ~0.2 nM
- EC50 (read off the curve) (Human 4-1BB Fc): ~0.4 nM
- EC50 (read off the curve) (Human 4-1BB His [3]): ~0.3 nM
- EC50 (read off the curve) (Human-TNFR2-His [2]): ~0.08 nM

B3: Antibody B (bispecific antibody, human IgG1, kappa)
light: DIQMTQSPSSLSASLGDRVTISCSASQGISNYLNWYQQKPDGTVKLLIYYTSTLHSGVPSRFSGSGSGTDYTLTISSLQPEDIATYYCQQYSKLPWTFGGGTKLEIKRTVAAPSVFIFPPSDEQLKSGTASVVCLLNNFYPREAKVQWKVDNALQSGNSQESVTEQDSKDSTYSLSSTLTLSKADYEKHKVYACEVTHQGLSSPVTKSFNRGECGGGGSGGGGSEVQLVQSGAEVKKPGATVKISCKVSGYSITDYLLHWVQQAPGKCLEWMGWIDPEDAKTKYGQKFQSRVTITADTSTDTAYMELSSLRSEDTAVYYCAANSGTGTMDAWGQGTLVTVSSGGGGSGGGGSGGGGSDIVMTQSPATLSVSPGERATLSCKASQNVGSNVDWYQQKPGQSPRVLIYKASIRYTGIPARFSGSGSGTEFTLTISILQSEDFAVYFCMQSKSYPITFGCGTKLEIK
heavy: not shown
notes: IgG1 subtype; full-length 4-1BB antibody with TNFR2 scFv at the C-terminus of the light chains
- binding result (Human TNFR2 mFc): binds
- binding result (Human 4-1BB His [1]): binds
- binding result (Human-TNFR2-His [4]): binds

— patent publication US20260049151A1 (SHENGHE CHINA BIOPHARMACEUTICAL, published 2026)
